Target: the molecule itself
Assay: SEC; analytical SEC on ENrich SEC 650 calibrated with mass standards; 50 mM BTP pH 7.4, 4°C, protein loaded at 1 mg/mL, 0.2 mL/min; apparent mass compared with theoretical monomer mass

B1: PgiDAH7PS-CM (bifunctional 3-deoxy-D-arabino heptulosonate-7-phosphate synthase / chorismate mutase from Porphyromonas gingivalis) (enzyme, UniProt B2RJM7 1-366, looked up)
chain: MKYCDFTPLPLPSEPNTTVIAGPCSAESEEQIMTTARALRDEAGIRIFRAGLWKPRTLPGCFEGVGETGLPWLVRVQDELDMLATTEVATREHVEQAMQAGIRILWLGARTTSNPFAVQEIADTIGKDESVIVLVKNPISPDLDLWTGALERLRQSGVRQIGAIHRGFSTYATKTFRNPPHWQIPFDLKRRFPSLTILCDPSHITGQRDRIESVSQQAMEMNFDGLIIESHCCPDKALSDASQQITPTVLAQILRRLRIPRRQSEKQDEELISWRMQIDQIDESIVELLARRMQVAYEIGLFKKEHNLAVVQNLRYEQLQRNRARTAALLGLDETFISELFSRIHEESVRLQTLAPQKPHTDDCIS
notes: PgiDAH7PS-CM, Porphyromonas gingivalis, UniProt B2RJM7, 366 amino acid residues; DAH7PS domain 17-253, 11-residue linker, CM domain 265-356; codon-optimised synthetic gene in pET28a; Homodimer by analytical SEC (68 ± 6 kDa against a theoretical monomer of 42 kDa); also called full-length PgiDAH7PS-CM; PgiDAH7PS^WT; source: E. coli BL21 (DE3), purified (HisTrap HP, TEV digestion, second HisTrap); …
For B1, the “stoichiometry N” value was 2.

B2: PgiCM (separated CM domain of PgiDAH7PS-CM) (domain or fragment, Porphyromonas gingivalis, UniProt B2RJM7 259-366, looked up)
chain: IPRRQSEKQDEELISWRMQIDQIDESIVELLARRMQVAYEIGLFKKEHNLAVVQNLRYEQLQRNRARTAALLGLDETFISELFSRIHEESVRLQTLAPQKPHTDDCIS
notes: C-terminal part of PgiDAH7PS-CM, Porphyromonas gingivalis, UniProt B2RJM7, split between R258 and I259; theoretical monomer MW 13 kDa; source: E. coli BL21 (DE3), purified (HisTrap HP, TEV digestion, second HisTrap); not shown: His6, N-terminal, cleaved
In the case of B2, the “stoichiometry N” value is reported as 2.

— publication PMC12202928, “Bidirectional interdomain crosstalk in a Porphyromonas gingivalis chimeric enzyme coordinates catalytic synergy for aromatic amino acid biosynthesis” (Frontiers in Microbiology, 2025)
